The source of these data is the supplement of paper PMC12764529.

± gives the half width of the 95% confidence interval.

A short description of data set [1]: folding stability dG unfold (combined trypsin and chymotrypsin); higher = more stable. The procedure, abridged: (§1)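 Mini-proteins designed to be under 80 residues and free of cysteine were carried in a PA-tagged cDNA display construct and digested with trypsin and with chymotrypsin. Each protease was applied at 11 threefold-diluted concentrations, alongside a no-protease condition, before sequencing. K50 came from Bayesian fitting of the sequencing counts, and unfolding free energy was obtained by comparing it with a sequence-predicted unfolded-state K50 and a shared folded-state K50, for each protease separately or for both together. Designs were retained only if their AlphaFold2 dimer inter-PAE exceeded 15.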

The nature of data set [2]: folding stability dG unfold from chymotrypsin proteolysis; higher = more stable. The essentials:
as §1

A short description of data set [3]: folding stability dG unfold from trypsin proteolysis; higher = more stable. The procedure, abridged:
as §1

For the sequence “SMSIELDAESIEEIADFLKKAIEDGNPDAKIRIELYPLGGEREEREYDSIDEIIAELKKGPARIRIELEPSA [r9_589_TrMRF]”, the “folding stability dG unfold” value in data set [1] was 1.88 ± 0.11 kcal/mol; in data set [2], 2.29 ± 0.11 kcal/mol; in data set [3] it was 1.36 ± 0.037 kcal/mol.

As for “SMSLVVSEEVDPATGTTTVTTTFPSPGVTVTATASAAGDSVTTTVTTTSPAPSAPTTTTTTTPVAPPGTDAS [r1_404_JUSTAS]”, the “folding stability dG unfold” value is 0.806 ± 0.087 kcal/mol in data set [1], -0.3 ± 0.077 kcal/mol in data set [2] and 1.55 ± 0.067 kcal/mol in data set [3].

For “SMSVSTSTEKLPTDLYITEKEIKIEPVDPTKNVYRVTVKTTIVDKNGNVVKEEEKEEIIPLSELEKRIKSSA [r9_234_JUSTAS]”, the “folding stability dG unfold” value turned out to be 1.54 ± 0.28 kcal/mol in data set [1], 1.61 ± 0.1 kcal/mol in data set [2] and 1.2 ± 0.085 kcal/mol in data set [3].

“SMSVVVPPDEGLTVTLTTLPGGTIEIHVGDTVLTRDVAPGETLTVTVPPDRTGNTVTVVGPGGVVVTSSGSA [r9_143_JUSTAS]”: the “folding stability dG unfold” value in data set [1] came out at 0.95 ± 0.044 kcal/mol; in data set [2], 0.71 ± 0.024 kcal/mol; in data set [3], 1.18 ± 0.048 kcal/mol.

Turning to “SMTIELTVPSPEELLAALKALADAGIKGAKIRITVTNPDGEEQEIEVDSIEDLEALIESGPVTVRVEIEPSA [r9_589_TrROS_Hall]”, the “folding stability dG unfold” value in data set [1] was found to be 3.05 ± 0.14 kcal/mol; in data set [2] it was 2.5 ± 0.084 kcal/mol; in data set [3], 3.56 ± 0.13 kcal/mol.

Regarding “SMTIRIVDEKTKEVREIKIENLTVEKEKDGRYRMTREQVLEALKKLLPEDVKIVEVEENEDGELTIVVEPSA [r9_997_TrROS_Hall]”, the “folding stability dG unfold” value in data set [1] was 2.77 ± 0.083 kcal/mol; in data set [2], 2.906 ± 0.025 kcal/mol; in data set [3], 2.41 ± 0.051 kcal/mol.

As for “SMTISIPGGITITIEPKPNSYTLTVSFPDGSTVTRPVDPSDLTSAIKAVIREALRRADPNITEEEIEKLLSA [r9_634_JUSTAS]”, the “folding stability dG unfold” value in data set [1] is more than 6 kcal/mol; in data set [2], 6.07 ± 0.17 kcal/mol; in data set [3], 4.39 ± 0.1 kcal/mol.

For the sequence “SMTITVKPENIEEVLAQIKALAAKHPKPVTITLEMSPEEVEKLRKALEDAGYKVEVDEKTGKVRIEIKVPSA [r9_600_TrROS_Hall]”, the “folding stability dG unfold” value amounted to 3.63 ± 0.074 kcal/mol in data set [1], 3.05 ± 0.096 kcal/mol in data set [2] and 4.52 ± 0.22 kcal/mol in data set [3].

As to “SMTLVLDVSPDKAYKFKIEYKTPDGKRLTVDADTTMEPDGTARVPLKIPDSSVPPGTPLEIEKVEVTPLLSA [r9_359_JUSTAS]”, the “folding stability dG unfold” value in data set [1] was 0.436 ± 0.066 kcal/mol; in data set [2] it was 0.699 ± 0.099 kcal/mol; in data set [3], -0.136 ± 0.085 kcal/mol.

For the sequence “SMTPEEVKALAEELAERLKEEGYEVEVKVTVEEVDGEKYVTIEIEVRRPDGSTETFRLVIREDGSIEIYPSA [r9_1027_TrROS_Hall]”, the “folding stability dG unfold” value in data set [1] worked out at 4.37 ± 0.17 kcal/mol; in data set [2], 4.54 ± 0.17 kcal/mol; in data set [3], 3.49 ± 0.19 kcal/mol.

As to “SMTRVKVELLITNPATGETFYYDIEATEEEAEEIAKELEESYPEKNATVTIKKKEVIPVEPPVVLPEGILSA [r9_14_JUSTAS]”, the “folding stability dG unfold” value in data set [1] is 0.815 ± 0.069 kcal/mol; in data set [2] it was 0.906 ± 0.057 kcal/mol; in data set [3], 0.418 ± 0.036 kcal/mol.

Consider “SMTTEEKVEVSVTVTPDPNSDNVTLTLTITKRTYAKDENGNWTEVSTETSTITVTLSPEEAAKLAAELLSSA [r9_642_JUSTAS]”, for which the “folding stability dG unfold” value in data set [1] came out at 4.34 ± 0.17 kcal/mol; in data set [2] it was 4.52 ± 0.099 kcal/mol; in data set [3], 3.75 ± 0.2 kcal/mol.

Turning to “SMTVEVELTVTVEVVDPKTGKKKTVTVKVTVKVRVTEVKTKDGKTEVKVELSEEALEEARRLAEELAKKKSA [r9_698_TrROS_Hall]”, the “folding stability dG unfold” value in data set [1] was found to be 2.89 ± 0.46 kcal/mol; in data set [2] it was 2.95 ± 0.38 kcal/mol; in data set [3] it was 3.13 ± 0.13 kcal/mol.

Take “SMTYSYGVDVSEDPNSDKTTATITTTSSDGSSSLSPEEVAAELAAEAKAAGYTVDVELRPGSVTITVTAPSA [r9_510_JUSTAS]”: the “folding stability dG unfold” value was found to be 0.354 ± 0.059 kcal/mol in data set [1], 0.108 ± 0.086 kcal/mol in data set [2] and 0.464 ± 0.018 kcal/mol in data set [3].
